Data reported in patent US20180185510A1, “ANTIBODY DRUG CONJUGATES OF KINESIN SPINDEL PROTEIN (KSP) INHIBITORS WITH ANTI-B7H3-ANTIBODIES” (BAYER PHARMA AKTIENGESELLSCHAFT, priority 2015, published 2018).
“And” between values parts separate entries of the source, which are not always exact repeats. Identical values can stand only once.

B1: Example 173L1: anti-B7H3 AK1A (TPP-3803) coupled with Intermediate F173 (antibody, human IgG1, kappa, V domains shown)
VH: QVKLQQSGAELVKPGASVKLSCKASGYTFTNYDINWVRQRPEQGLEWIGWIFPGDGSTQYNEKFKGKATLTTDTSSSTAYMQLSRLTSEDSAVYFCARQTTATWFAYWGQGTTVTVSS
VL: DIELTQSPTTLSVTPGDRVSLSCRASQSISDYLHWYQQKSHESPRLLIKYASQSISGIPSRFSGSGSGSDFTLSINSVEPEDVGVYYCQNGHSFPLTFGAGTKLELKR
modifications: KSP inhibitor-linker (Intermediate F173) on cysteine residues of the partially reduced antibody, sites not given; drug/mAb ratio 3.4
B2: Example 194: anti-B7H3 AK1A (TPP-3803) coupled with Intermediate F194 (antibody, human IgG1, kappa, V domains shown)
VH: B1 VH
VL: B1 VL
modifications: KSP inhibitor-linker (Intermediate F194) on lysine residues, sites not given; drug/mAb ratio 2.4
B3: Example 259L1: anti-B7H3 AK1A (TPP-3803) coupled with Intermediate F259 (antibody, human IgG1, kappa, V domains shown)
VH: B1 VH
VL: B1 VL
modifications: KSP inhibitor-linker (Intermediate F259) on cysteine residues of the partially reduced antibody, sites not given; drug/mAb ratio 3.0
B4: Example 297L1 (Isomer 1): anti-B7H3 AK1A (TPP-3803) coupled with Intermediate F297 (antibody, human IgG1, kappa, V domains shown)
VH: B1 VH
VL: B1 VL
modifications: KSP inhibitor-linker (Intermediate F297) on cysteine residues of the partially reduced antibody, sites not given; drug/mAb ratio 2.4
B5: Example 274L1: anti-B7H3 AK1A (TPP-3803) coupled with Intermediate F274 (antibody, human IgG1, kappa, V domains shown)
VH: B1 VH
VL: B1 VL
modifications: KSP inhibitor-linker (Intermediate F274) on cysteine residues of the partially reduced antibody, sites not given; drug/mAb ratio 2.9
B6: Example 270L1: anti-B7H3 AK1A (TPP-3803) coupled with Intermediate F270 (antibody, human IgG1, kappa, V domains shown)
VH: B1 VH
VL: B1 VL
modifications: KSP inhibitor-linker (Intermediate F270) on cysteine residues of the partially reduced antibody, sites not given; drug/mAb ratio 2.8
B7: Example 240L1: anti-B7H3 AK1A (TPP-3803) coupled with Intermediate F240 (antibody, human IgG1, kappa, V domains shown)
VH: B1 VH
VL: B1 VL
modifications: KSP inhibitor-linker (Intermediate F240) on cysteine residues of the partially reduced antibody, sites not given; drug/mAb ratio 2.7
B8: Example 257L1: anti-B7H3 AK1A (TPP-3803) coupled with Intermediate F257 (antibody, human IgG1, kappa, V domains shown)
VH: B1 VH
VL: B1 VL
modifications: KSP inhibitor-linker (Intermediate F257) on cysteine residues of the partially reduced antibody, sites not given; drug/mAb ratio 2.4
B9: Example 257L2: anti-B7H3 AK1B (TPP-5706) coupled with Intermediate F257 (antibody, human IgG1, kappa, V domains shown)
VH: QVQLQQPGAELVKPGASVKMSCKASGYTFTIYNVHWIKQTPGQGLEWMGTIFPGNGDTSYNQKFKDKATLTTDKSSKTAYMQLNSLTSEDSAVYYCARWDDGNVGFAHWGQGTLVTVSA
VL: DIQMTQSPASLSASVGETVTITCRASENINNYLTWFQQKQGKSPQLLVYHAKTLAEGVPSRFSGSGSGTQFSLKINSLQPEDFGSYYCQHHYGTPPTFGGGTKLEIKR
modifications: KSP inhibitor-linker (Intermediate F257) on cysteine residues of the partially reduced antibody, sites not given; drug/mAb ratio 4.5
B10: Example 284L2: anti-B7H3 AK1B (TPP-5706) coupled with Intermediate F284 (antibody, human IgG1, kappa, V domains shown)
VH: B9 VH
VL: B9 VL
modifications: KSP inhibitor-linker (Intermediate F284) on cysteine residues of the partially reduced antibody, sites not given; drug/mAb ratio 3.0

biological target: T1, B7H3 on B7H3-positive human tumour cells (A498, MCF-7, Caki-2, 786-0) (human, UniProt Q5ZPR3 29-534); test: cell-based or functional assay
T1 sequence (looked up): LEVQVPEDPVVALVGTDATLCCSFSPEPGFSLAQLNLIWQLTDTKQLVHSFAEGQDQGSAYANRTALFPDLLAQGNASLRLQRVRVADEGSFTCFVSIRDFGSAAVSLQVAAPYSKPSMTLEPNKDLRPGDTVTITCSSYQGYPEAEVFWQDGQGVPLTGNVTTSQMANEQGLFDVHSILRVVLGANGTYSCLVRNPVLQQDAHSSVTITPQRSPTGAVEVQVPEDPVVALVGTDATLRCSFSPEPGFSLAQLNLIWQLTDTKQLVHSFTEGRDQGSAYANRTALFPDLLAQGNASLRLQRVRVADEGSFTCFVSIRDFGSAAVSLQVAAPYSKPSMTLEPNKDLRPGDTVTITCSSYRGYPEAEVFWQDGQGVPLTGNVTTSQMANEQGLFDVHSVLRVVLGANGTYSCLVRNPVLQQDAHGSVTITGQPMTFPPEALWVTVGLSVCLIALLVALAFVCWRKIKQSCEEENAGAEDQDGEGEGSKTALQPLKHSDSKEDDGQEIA

Binder | IC50 [M] CTG, A498 cells (B7H3-positive) | IC50 [M] CTG, MCF-7 cells (B7H3-positive) | IC50 [M] CTG, Caki-2 cells (B7H3-positive)
B1 | 6e-07 M | 4.98e-09 M | 
B2 |  | 6.43e-10 M | 
B3 |  | 4.57e-09 M | 
B4 |  | 8.93e-09 M | 
B5 |  | 1.86e-09 M | 
B6 | 6e-07 M | 7e-08 M | 
B7 | 2.35e-09 M | 7.25e-10 M | 
B8 |  | 4.49e-10 M | 
B9 | 1.16e-10 M and 1.37e-10 M | 7.37e-11 M and 8.63e-11 M | 1.5e-11 M and < 3e-11 M
B10 |  | 7.02e-10 M | 
